Laboratory results from patent US9994845.

Target: fluorescently-labeled taxol-stabilized microtubules

B1: purified recombinant full-length Kif19 (protein)
chain: MKDSGDSKDQQLMVALRVRPISVAELEEGATLIAHKVDEQMVVLMDPMEDPDDILRAHRSREKSYLFDVAFDFTATQEMVYQATTKSLIEGVISGYNATVFAYGPTGCGKTYTMLGTDQEPGIYVQTLNDLFRAIEETSNDMEYEVSMSYLEIYNEMIRDLLNPSLGYLELREDSKGVIQVAGITEVSTINAKEIMQLLMKGNRQRTQEPTAANQTSSRSHAVLQVTVRQRSRVKNILQEVRQGRLFMIDLAGSERASQTQNRGQRMKEGAHINRSLLALGNCINALSDKGSNKYINYRDSKLTRLLKDSLGGNSRTVMIAHISPASSAFEESRNTLTYAGRAKNIKTRVKQNLLNVSYHIAQYTSIIADLRGEIQRLKRKIDEQTGRGQARGRQDRGDIRHIQAEVQLHSGQGEKAGMGQLREQLASAFQEQMDVRRRLLELENRAMEVQIDTSRHLLTIAGWKHEKSRRALKWREEQRKECYAKDDSEKDSDTGDDQPDILEPPEVAAARESIAALVDEQKQLRKQKLALEQRCRELRARGRRLEETLPRRIGSEEQREVLSLLCRVHELEVENTEMQSHALLRDGALRHRHEAVRRLEQHRSLCDEIIQGQRQIIDDYNLAVPQRLEELYEVYLRELEEGSLEQATIMDQVASRALQDSSLPKITPAGTSLTPDSDLESVKTLSSDAQHLQNSALPPLSTESEGHHVFKAGTGAWQAKSSSVPTPPPIQLGSLVTQEAPAQDSLGSWINSSPDSSENLSEIPLSHKERKEILTGTKCIWVKAARRRSRALGTEGRHLLAPATERSSLSLHSLSEGDDARPPGPLACKRPPSPTLQHAASEDNLSSSTGEAPSRAVGHHGDGPRPWLRGQKKSLGKKREESLEAKRRKRRSRSFEVTGQGLSHPKTHLLGPHQAERISDHRMPVCRHPAPGIRHLGKVTLPLAKVKLPPSQNTGPGDSSPLAVPPNPGGGSRRATRGPRLPHGTSTHGKDGCSRHN
microtubule depolymerization in vitro (TIRF time series, 5 minutes): Kif-19 depolymerizes microtubules in vitro
